For one substance, Kd, koff and kon results are on record in PMC6282620, “Structural and biochemical characterization of Plasmodium falciparum Hsp70‐x reveals functional versatility of its C‐terminal EEVN motif” (Proteins, 2018).

Assay [1] has as its target PfHsp70‐x C‐terminal truncated version with a missing EEVN motif (Plasmodium falciparum). As to the kind of experiment: SPR; PfHsp70‐x or PfHsp70‐xT immobilised on ProteOn GLC chips, hHop as analyte at 125-2000 nM, 25°C, PBS‐Tween pH 7.4, no nucleotide, Langmuir model. (In SPR one partner is held on a chip, and binding of the other changes the refractive index at the surface.)

The target in assay [2] is Plasmodium falciparum Hsp70‐x (full length) (Plasmodium falciparum). Described as above.
In assay [3] the target is PfHsp70‐x C‐terminal truncated version with a missing EEVN motif (Plasmodium falciparum). As to the kind of experiment: SPR; PfHsp70‐x or PfHsp70‐xT immobilised on ProteOn GLC chips, hHop as analyte at 125-2000 nM, 25°C, PBS‐Tween pH 7.4, with 5 mM ADP, Langmuir model.
Assay [4] concerns the target Plasmodium falciparum Hsp70‐x (full length) (Plasmodium falciparum). The description is as above.
Assay [5] deals with PfHsp70‐x C‐terminal truncated version with a missing EEVN motif (Plasmodium falciparum). Briefly: SPR; PfHsp70‐x or PfHsp70‐xT immobilised on ProteOn GLC chips, hHop as analyte at 125-2000 nM, 25°C, PBS‐Tween pH 7.4, with 5 mM ATP, Langmuir model.
Assay [6] has as its target Plasmodium falciparum Hsp70‐x (full length) (Plasmodium falciparum). The assay is described as above.

In general, Kd refers to the free concentration of one partner at which half of the binding sites on the other are occupied at equilibrium, for simple one-to-one binding. The koff is the first-order rate constant of dissociation. A higher koff goes with fast dissociation. A word on the kon: it is the rate constant with which the complex forms. A lower kon goes with slower complex formation. On to “human Hsp70‐Hsp90 organizing protein (from UniProt P31948 1-543) (natural protein)”, for which the Kd is 2100 nM in assay [1]; 30.1 nM in assay [2]; 1660 nM in assay [3]; 23.1 nM in assay [4]; 41000 nM in assay [5]; 380 nM in assay [6]. The koff in assay [1] amounted to 1.01e-05 s⁻¹; in assay [2], 2.3e-05 s⁻¹; in assay [3] it was 2.1e-05 s⁻¹; in assay [4], 3.7e-05 s⁻¹; in assay [5], 0.00032 s⁻¹; in assay [6], 0.00044 s⁻¹. Besides, the kon was 24.7 M⁻¹ s⁻¹ in assay [1]; 4300 M⁻¹ s⁻¹ in assay [2]; 42.6 M⁻¹ s⁻¹ in assay [3]; 3300 M⁻¹ s⁻¹ in assay [4]; 54.1 M⁻¹ s⁻¹ in assay [5]; 3470 M⁻¹ s⁻¹ in assay [6].
